# Experimental data as given in patent publication US6436654B1, “Methods for identifying compounds that modulate HIF-1α” (Pharmacia & Upjohn AB, priority 1998, dated 2002).
# B1: GAL4/HIF 526-641: GAL4 fusion with N-terminal transactivation domain and proposed inhibitory sequence (protein)
# chain: MKLLSSIEQACDICRLKKLKCSKEKPKCAKCLKNNWECRYSPKTKRSPLTRAHLTEVESRLERLEQLFLLIFPREDLDMILKMDSLQDIKALLTGLFVQDNVNKDAVTDRLASVETDMPLTLRQHRISATSSSEESSNKGQRQLTVSDMVNEFKLELVEKLFAEDTEAKNPFSTQDTDLDLEMLAPYIPMDDDFQLRSFDQLSPLESSSASPESASPQSTVTVFQQTQIQEPTANATTTTATTDELKTVTKDRMEDIKILIAS
# B2: GAL4/HIF 776-813: GAL4 fusion of C-terminal transactivation domain lacking 13 most carboxy-terminal amino acids (SEQ ID NO: 15) (protein)
# chain: MKLLSSIEQACDICRLKKLKCSKEKPKCAKCLKNNWECRYSPKTKRSPLTRAHLTEVESRLERLEQLFLLIFPREDLDMILKMDSLQDIKALLTGLFVQDNVNKDAVTDRLASVETDMPLTLRQHRISATSSSEESSNKGQRQLTVSSDLACRLLGQSMDESGLPQLTSYDCEVNAPIQGSRNLL
# B3: GAL4/HIF 531-584: GAL4 chimeric protein spanning the N-terminal transactivation domain of HIF-1α (SEQ ID NO: 13) (protein)
# chain: MKLLSSIEQACDICRLKKLKCSKEKPKCAKCLKNNWECRYSPKTKRSPLTRAHLTEVESRLERLEQLFLLIFPREDLDMILKMDSLQDIKALLTGLFVQDNVNKDAVTDRLASVETDMPLTLRQHRISATSSSEESSNKGQRQLTVSFKLELVEKLFAEDTEAKNPFSTQDTDLDLEMLAPYIPMDDDFQLRSFDQLSPLE
# B4: GAL4/HIF 776-826: GAL4 fusion containing the carboxy-terminal transactivation domain of HIF-1α (SEQ ID NO: 14) (protein)
# chain: MKLLSSIEQACDICRLKKLKCSKEKPKCAKCLKNNWECRYSPKTKRSPLTRAHLTEVESRLERLEQLFLLIFPREDLDMILKMDSLQDIKALLTGLFVQDNVNKDAVTDRLASVETDMPLTLRQHRISATSSSEESSNKGQRQLTVSSDLACRLLGQSMDESGLPQLTSYDCEVNAPIQGSRNLLQGEELLRALDQVN
# How the values were obtained:
# [1] = tested on: GAL4 responsive reporter plasmid; experiment: Cotransfection of GAL4-HIF-1α fusion proteins with GAL4 responsive luciferase reporter; format: cell-based, simian; details: for GAL4 reporter transcriptional activity (in words): with or without CBP / SRC-1; for stimulation of GAL4 reporter activity by coexpressed CBP / stimulation of GAL4 reporter activity by coexpressed SRC-1: hypoxic conditions, vs hypoxia without exogenous coactivator
# Source text: To analyze functional activities of HIF-1α independently of the endogenous DNA binding and dimerization domains and the Arnt partner, we next fused HIF-1α to the heterologous DNA binding domain of GAL4. Functional activity of the fusion protein was monitored in COS7 cells by a cotransfection assay using a reporter gene construct carrying five GAL4 DNA binding elements in front of thymidine kinase promoter and the luciferase gene. Six hours after transfection media was changed, and cells were either left uninduced or exposed to 1% oxygen for 30 h prior to harvest. In the presence of either empty expression vector or a vector expressing the minimal GAL4 DNA binding domain, reporter gene activity was unaltered by reduced oxygen levels. […] The GAL4 DNA binding domain is known to harbor an NLS motif capable of taking fusion proteins to the nucleus (Ma and Ptashne (1987) Cell 51, 113-119). We therefore used antibodies directed against the DNA binding domain of GAL4 to examine in both normoxic and hypoxic cells the intracellular localization of the GAL4-HIF-1α fusion protein by immunofluorescence.
# Transcriptional activity of GFP and GAL4 fusion constructs was analyzed in a cotransfection assay where effector plasmids (0.2 μg/30-mm dish) together with a reporter gene (1.5 μg/30-mm dish) were introduced into COS7 or HeLa cells. The reporter plasmid encoded firefly luciferase gene under the control of thymidine kinase minimal promoter and either five or three copies of GAL4 or HIF-responsive elements, respectively.
# GST/Ref-1 = GST/Ref-1 (Homo sapiens, UniProt P27695); experiment: Pull-down of [35S]methionine-labeled GAL4/HIF proteins with GST/Ref-1; format: binding; details: presence or absence of diamide
# Protocol: The precise mechanism by which Ref-1 activates HIF-1α is not known. […] To further investigate whether Ref-1 could interact with HIF-1α, we tried to trap the interaction by using a crosslinking reagent such as diamide, which oxidizes cysteine sulfhydryls to disulfides. A series of experiments was performed with GST-tagged purified Ref-1. [^35S]methionine-labeled in vitro translated GAL4/HIF 1-826 was incubated with GST/Ref-1 in the presence or absence of diamide.
# Next, we tried a series of pull-down experiments with [^35S]methionine-labeled in vitro translated GAL4/HIF […] and GAL4/HIF 531-584. […] An interaction between GAL4/HIF […] and GST/Ref-1 was also detected, and this interaction was enhanced in the presence of diamide. In excellent agreement with this observation the C-TAD contains two cysteine residues. […] Immunoblot analysis verified that the input concentrations of GST/Ref-1 or GST alone were similar.
# GST/Ref-1, sequence (P27695 whole entry, species assumed, the tested form may be a part): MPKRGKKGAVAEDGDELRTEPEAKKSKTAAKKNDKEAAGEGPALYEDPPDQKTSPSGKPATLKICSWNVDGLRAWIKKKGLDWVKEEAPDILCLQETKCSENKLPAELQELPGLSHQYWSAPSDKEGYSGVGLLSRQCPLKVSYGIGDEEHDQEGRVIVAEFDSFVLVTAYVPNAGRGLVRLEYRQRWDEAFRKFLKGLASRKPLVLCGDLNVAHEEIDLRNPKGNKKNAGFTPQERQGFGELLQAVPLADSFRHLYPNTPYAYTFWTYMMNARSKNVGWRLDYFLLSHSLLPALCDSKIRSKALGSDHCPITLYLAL
Molecule,GAL4 reporter transcriptional activity (in words) [1],"regulation by Ref-1 and the coactivators (in words) ([1]; Ref-1, CBP and SRC-1)","stimulation of hypoxia-dependent activation response by p300ΔHAT ([1]; absence of SRC-1, hypoxia) [fold]",stimulation of GAL4 reporter activity by coexpressed CBP [1] [fold],stimulation of GAL4 reporter activity by coexpressed SRC-1 [1] [fold],binding to GST/Ref-1 (in words) (GST/Ref-1),"hypoxia-dependent activation of GAL4 reporter gene activity ([1]; 1% O2 vs normoxia, no exogenous coactivator)"
B1,complete abrogation of the effect of CBP and SRC-1,–,–,–,–,–,–
B2,completely abrogated,showed no regulation by Ref-1 and the coactivators,–,–,–,–,–
B3,–,–,2,11,1.5,bound GST/Ref-1,–
B4,–,–,–,29,17,detected,about 2 fold
